Experimental data: the supplement of paper PMC10065799, “High-throughput profiling of sequence recognition by tyrosine kinases and SH2 domains using bacterial peptide display” (eLife, 2023)

Tested on: c-Abl (mouse)
Test: phosphorylation enrichment, bacterial display (enrichment ratio); higher = better substrate or ligand; peptides without Tyr show the background
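Note: 11-residue human phosphosite peptides and single-mutation variants displayed on the E. coli surface, counted by deep sequencing, each peptide's frequency after selection divided by its frequency in the unselected input library; frequency after pTyr selection over input frequency; kinase dosed for 20-30% of maximal phosphorylation in three min.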

Going from MIAIRYSHSRR [ACOXL_Y260_T255M] to RVDRDYVLKSA [HTATIP2_Y111], the phosphorylation enrichment rises from 0.473 to 0.709.

First: PNATLYKMSSI [SERPINA7_Y40]
Second: KGELRYMHSPV [ABCD1_Y281_R285P]
The phosphorylation enrichment of the first is lower: 0.472 for the first, 0.527 for the second.

Compared with ARIVDYNIIGW [MYH7_Y588_G584R], TEVIWYKGDEE is higher in phosphorylation enrichment: 0.561 for the first, 0.691 for the second.

Going from RRNEEYCLLDS [ITK_Y198] to DTDSSYCIPTA [GAB1_Y373], the phosphorylation enrichment falls from 0.821 to 0.73.

Going from DTYDPYLDIAL [USP36_Y268_V271I] to GLGGVYGGASG [KRT8_Y54_G53V], the phosphorylation enrichment falls from 0.982 to 0.577.

Compared with EVKEAYMGNVL [ACAT1_Y90], PGLRGYPGLSG [COL4A2_Y306] is higher in phosphorylation enrichment: 0.506 for the first, 0.508 for the second.

Going from LWQSIYNLEAE [TNNT2_Y251] to MTKEQYIKMNR [ARFGEF2_Y797], the phosphorylation enrichment falls from 0.881 to 0.335.

First: SLIDMYSKVLD [OPA1_Y268_E270K]
Second: EYGRRYGFSCQ [CCDC93_Y209_R213C]
The phosphorylation enrichment of the first is lower: 0.482 for the first, 0.881 for the second.

Going from FKWAVYCIIGR [NUP93_Y391_R388W_YF] to DPHECYAKVFN [ALB_Y394_D399N], the phosphorylation enrichment rises from 0.902 to 0.91.

Compared with ISRASYFRKGG [ALK_Y1282_Y1278S_YF], ELTTCYRKKCC [CCBE1_Y70] is lower in phosphorylation enrichment: 0.597 for the first, 0.559 for the second.

Compared with ELPEKYSQNIC [PKP2_Y626_Y631C], DQVEQYKKELE [LMNA_Y259] is lower in phosphorylation enrichment: 0.956 for the first, 0.878 for the second.

Compared with LGRKLYSIATP [ABHD12_Y345_A349T], LNEWHYGGLTG [PGAM2_Y92_R90W] is lower in phosphorylation enrichment: 1.07 for the first, 0.626 for the second.

Going from KFDLMYAKLAF [TUBA1A_Y399_R402L] to KTNVSYFGALD [CACNB4_Y103_C104F], the phosphorylation enrichment falls from 0.716 to 0.59.

Going from ADDSYYTARSA [ZAP70_Y493] to RMDGTYACSFT [FLNB_Y704_YF], the phosphorylation enrichment rises from 0.542 to 1.34.

First: LGGAMYYLEAD [PKHD1_Y452_E457D]
Second: RRGMPYGGHGD [TGM1_Y312_R315H]
The phosphorylation enrichment of the first is higher: 0.956 for the first, 0.357 for the second.

Compared with LARDMHDKEFF [MET_Y1230_Y1230H_YF], NFRNTYVNANE [KCNH2_Y475_T473N] is lower in phosphorylation enrichment: 0.91 for the first, 0.467 for the second.

Sequence GYYDLYGGEKF [PTPN11_Y66_D61G] has a phosphorylation enrichment of 0.68.

Biological target: Fes (UniProt P07332)
Test: as above

Chain of Fes (P07332 whole entry, looked up): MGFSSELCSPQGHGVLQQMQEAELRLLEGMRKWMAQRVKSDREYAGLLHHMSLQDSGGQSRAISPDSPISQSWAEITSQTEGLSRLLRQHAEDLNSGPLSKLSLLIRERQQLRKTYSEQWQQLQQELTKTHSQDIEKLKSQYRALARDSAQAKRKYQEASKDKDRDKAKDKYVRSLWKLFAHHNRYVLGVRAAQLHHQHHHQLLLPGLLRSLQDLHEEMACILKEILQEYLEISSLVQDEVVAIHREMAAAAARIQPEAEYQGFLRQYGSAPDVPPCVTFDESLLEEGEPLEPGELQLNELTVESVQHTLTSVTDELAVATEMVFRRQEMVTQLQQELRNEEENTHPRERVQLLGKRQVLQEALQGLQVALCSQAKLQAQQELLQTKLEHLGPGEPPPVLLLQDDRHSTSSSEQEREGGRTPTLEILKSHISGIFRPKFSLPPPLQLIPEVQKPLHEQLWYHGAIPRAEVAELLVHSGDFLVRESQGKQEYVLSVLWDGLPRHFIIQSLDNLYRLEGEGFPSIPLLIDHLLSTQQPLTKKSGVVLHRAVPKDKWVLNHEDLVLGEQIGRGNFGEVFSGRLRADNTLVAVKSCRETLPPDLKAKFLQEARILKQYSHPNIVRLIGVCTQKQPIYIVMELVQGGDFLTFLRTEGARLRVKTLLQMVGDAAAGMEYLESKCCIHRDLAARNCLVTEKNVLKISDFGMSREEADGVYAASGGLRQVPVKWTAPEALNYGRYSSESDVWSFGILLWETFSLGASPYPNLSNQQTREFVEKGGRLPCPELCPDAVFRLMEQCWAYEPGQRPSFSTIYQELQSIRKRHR

First: MIAIRYSHSRR [ACOXL_Y260_T255M]
Second: RVDRDYVLKSA [HTATIP2_Y111]
The phosphorylation enrichment of the first is lower: 0.487 for the first, 0.872 for the second.

Compared with PNATLYKMSSI [SERPINA7_Y40], KGELRYMHSPV [ABCD1_Y281_R285P] is higher in phosphorylation enrichment: 0.55 for the first, 0.674 for the second.

Going from ARIVDYNIIGW [MYH7_Y588_G584R] to TEVIWYKGDEE, the phosphorylation enrichment rises from 0.846 to 1.55.

Compared with RRNEEYCLLDS [ITK_Y198], DTDSSYCIPTA [GAB1_Y373] is lower in phosphorylation enrichment: 1.64 for the first, 1.18 for the second.

Compared with DTYDPYLDIAL [USP36_Y268_V271I], GLGGVYGGASG [KRT8_Y54_G53V] is lower in phosphorylation enrichment: 1.55 for the first, 0.661 for the second.

Compared with EVKEAYMGNVL [ACAT1_Y90], PGLRGYPGLSG [COL4A2_Y306] is higher in phosphorylation enrichment: 0.848 for the first, 0.87 for the second.

Going from LWQSIYNLEAE [TNNT2_Y251] to MTKEQYIKMNR [ARFGEF2_Y797], the phosphorylation enrichment falls from 1.45 to 0.558.

Compared with SLIDMYSKVLD [OPA1_Y268_E270K], EYGRRYGFSCQ [CCDC93_Y209_R213C] is higher in phosphorylation enrichment: 1.02 for the first, 1.12 for the second.

First: FKWAVYCIIGR [NUP93_Y391_R388W_YF]
Second: DPHECYAKVFN [ALB_Y394_D399N]
The phosphorylation enrichment of the first is higher: 1.28 for the first, 0.952 for the second.

Going from ISRASYFRKGG [ALK_Y1282_Y1278S_YF] to ELTTCYRKKCC [CCBE1_Y70], the phosphorylation enrichment rises from 0.724 to 0.785.

Going from ELPEKYSQNIC [PKP2_Y626_Y631C] to DQVEQYKKELE [LMNA_Y259], the phosphorylation enrichment rises from 1.12 to 1.2.

Going from LGRKLYSIATP [ABHD12_Y345_A349T] to LNEWHYGGLTG [PGAM2_Y92_R90W], the phosphorylation enrichment falls from 1.18 to 1.12.

Going from KFDLMYAKLAF [TUBA1A_Y399_R402L] to KTNVSYFGALD [CACNB4_Y103_C104F], the phosphorylation enrichment falls from 1.13 to 0.848.

First: ADDSYYTARSA [ZAP70_Y493]
Second: RMDGTYACSFT [FLNB_Y704_YF]
The phosphorylation enrichment of the first is lower: 0.706 for the first, 1.16 for the second.

First: LGGAMYYLEAD [PKHD1_Y452_E457D]
Second: RRGMPYGGHGD [TGM1_Y312_R315H]
The phosphorylation enrichment of the first is higher: 1.48 for the first, 0.653 for the second.

Going from LARDMHDKEFF [MET_Y1230_Y1230H_YF] to NFRNTYVNANE [KCNH2_Y475_T473N], the phosphorylation enrichment falls from 0.864 to 0.677.

With GYYDLYGGEKF [PTPN11_Y66_D61G] the phosphorylation enrichment was 0.931.

Biological target: EPHB1 (UniProt P54762)
Test: as above

Chain of EPHB1 (P54762 whole entry, looked up): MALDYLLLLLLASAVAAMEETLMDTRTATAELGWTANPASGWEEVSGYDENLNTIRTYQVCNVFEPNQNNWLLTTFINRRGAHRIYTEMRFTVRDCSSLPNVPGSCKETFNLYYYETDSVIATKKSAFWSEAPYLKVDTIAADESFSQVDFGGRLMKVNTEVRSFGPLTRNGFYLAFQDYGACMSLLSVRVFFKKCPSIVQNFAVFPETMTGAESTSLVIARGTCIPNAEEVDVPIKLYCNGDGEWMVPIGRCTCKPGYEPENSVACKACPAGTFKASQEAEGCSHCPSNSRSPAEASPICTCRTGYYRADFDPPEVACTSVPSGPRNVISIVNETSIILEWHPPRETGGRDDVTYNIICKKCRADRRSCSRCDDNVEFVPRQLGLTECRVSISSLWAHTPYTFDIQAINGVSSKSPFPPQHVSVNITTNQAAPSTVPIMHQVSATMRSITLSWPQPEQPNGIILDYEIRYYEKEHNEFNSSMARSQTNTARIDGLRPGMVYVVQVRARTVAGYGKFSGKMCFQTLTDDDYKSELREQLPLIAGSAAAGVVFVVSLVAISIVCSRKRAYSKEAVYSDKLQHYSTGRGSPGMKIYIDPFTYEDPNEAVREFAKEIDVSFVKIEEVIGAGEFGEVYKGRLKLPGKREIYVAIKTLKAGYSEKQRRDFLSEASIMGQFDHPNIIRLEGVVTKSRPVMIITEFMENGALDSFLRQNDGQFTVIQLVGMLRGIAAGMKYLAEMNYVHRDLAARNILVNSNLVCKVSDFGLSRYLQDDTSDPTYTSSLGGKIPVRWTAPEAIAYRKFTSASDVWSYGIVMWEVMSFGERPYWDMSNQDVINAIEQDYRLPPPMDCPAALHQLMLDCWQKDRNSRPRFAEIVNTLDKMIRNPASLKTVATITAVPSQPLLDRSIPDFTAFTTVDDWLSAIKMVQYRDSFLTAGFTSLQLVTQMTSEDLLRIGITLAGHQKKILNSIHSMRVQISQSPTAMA

First: MIAIRYSHSRR [ACOXL_Y260_T255M]
Second: RVDRDYVLKSA [HTATIP2_Y111]
The phosphorylation enrichment of the first is higher: 0.539 for the first, 0.487 for the second.

Going from PNATLYKMSSI [SERPINA7_Y40] to KGELRYMHSPV [ABCD1_Y281_R285P], the phosphorylation enrichment falls from 0.456 to 0.393.

Going from ARIVDYNIIGW [MYH7_Y588_G584R] to TEVIWYKGDEE, the phosphorylation enrichment falls from 0.542 to 0.516.

Compared with RRNEEYCLLDS [ITK_Y198], DTDSSYCIPTA [GAB1_Y373] is lower in phosphorylation enrichment: 1 for the first, 0.692 for the second.

First: DTYDPYLDIAL [USP36_Y268_V271I]
Second: GLGGVYGGASG [KRT8_Y54_G53V]
The phosphorylation enrichment of the first is higher: 1.03 for the first, 0.445 for the second.

Compared with EVKEAYMGNVL [ACAT1_Y90], PGLRGYPGLSG [COL4A2_Y306] is higher in phosphorylation enrichment: 0.341 for the first, 0.894 for the second.

Compared with LWQSIYNLEAE [TNNT2_Y251], MTKEQYIKMNR [ARFGEF2_Y797] is lower in phosphorylation enrichment: 0.793 for the first, 0.365 for the second.

First: SLIDMYSKVLD [OPA1_Y268_E270K]
Second: EYGRRYGFSCQ [CCDC93_Y209_R213C]
The phosphorylation enrichment of the first is lower: 0.462 for the first, 0.59 for the second.

Compared with FKWAVYCIIGR [NUP93_Y391_R388W_YF], DPHECYAKVFN [ALB_Y394_D399N] is lower in phosphorylation enrichment: 1.19 for the first, 0.549 for the second.

First: ISRASYFRKGG [ALK_Y1282_Y1278S_YF]
Second: ELTTCYRKKCC [CCBE1_Y70]
The phosphorylation enrichment of the first is lower: 0.4 for the first, 0.441 for the second.

First: ELPEKYSQNIC [PKP2_Y626_Y631C]
Second: DQVEQYKKELE [LMNA_Y259]
The phosphorylation enrichment of the first is lower: 0.538 for the first, 0.67 for the second.

Going from LGRKLYSIATP [ABHD12_Y345_A349T] to LNEWHYGGLTG [PGAM2_Y92_R90W], the phosphorylation enrichment falls from 0.576 to 0.444.

Going from KFDLMYAKLAF [TUBA1A_Y399_R402L] to KTNVSYFGALD [CACNB4_Y103_C104F], the phosphorylation enrichment falls from 0.726 to 0.438.

First: ADDSYYTARSA [ZAP70_Y493]
Second: RMDGTYACSFT [FLNB_Y704_YF]
The phosphorylation enrichment of the first is lower: 0.484 for the first, 1.03 for the second.

First: LGGAMYYLEAD [PKHD1_Y452_E457D]
Second: RRGMPYGGHGD [TGM1_Y312_R315H]
The phosphorylation enrichment of the first is higher: 0.839 for the first, 0.414 for the second.

Compared with LARDMHDKEFF [MET_Y1230_Y1230H_YF], NFRNTYVNANE [KCNH2_Y475_T473N] is lower in phosphorylation enrichment: 0.723 for the first, 0.373 for the second.

In the case of GYYDLYGGEKF [PTPN11_Y66_D61G], the phosphorylation enrichment is reported as 3.27.

Biological target: MERTK (UniProt Q12866)
Test: as above

Chain of MERTK (Q12866 whole entry, looked up): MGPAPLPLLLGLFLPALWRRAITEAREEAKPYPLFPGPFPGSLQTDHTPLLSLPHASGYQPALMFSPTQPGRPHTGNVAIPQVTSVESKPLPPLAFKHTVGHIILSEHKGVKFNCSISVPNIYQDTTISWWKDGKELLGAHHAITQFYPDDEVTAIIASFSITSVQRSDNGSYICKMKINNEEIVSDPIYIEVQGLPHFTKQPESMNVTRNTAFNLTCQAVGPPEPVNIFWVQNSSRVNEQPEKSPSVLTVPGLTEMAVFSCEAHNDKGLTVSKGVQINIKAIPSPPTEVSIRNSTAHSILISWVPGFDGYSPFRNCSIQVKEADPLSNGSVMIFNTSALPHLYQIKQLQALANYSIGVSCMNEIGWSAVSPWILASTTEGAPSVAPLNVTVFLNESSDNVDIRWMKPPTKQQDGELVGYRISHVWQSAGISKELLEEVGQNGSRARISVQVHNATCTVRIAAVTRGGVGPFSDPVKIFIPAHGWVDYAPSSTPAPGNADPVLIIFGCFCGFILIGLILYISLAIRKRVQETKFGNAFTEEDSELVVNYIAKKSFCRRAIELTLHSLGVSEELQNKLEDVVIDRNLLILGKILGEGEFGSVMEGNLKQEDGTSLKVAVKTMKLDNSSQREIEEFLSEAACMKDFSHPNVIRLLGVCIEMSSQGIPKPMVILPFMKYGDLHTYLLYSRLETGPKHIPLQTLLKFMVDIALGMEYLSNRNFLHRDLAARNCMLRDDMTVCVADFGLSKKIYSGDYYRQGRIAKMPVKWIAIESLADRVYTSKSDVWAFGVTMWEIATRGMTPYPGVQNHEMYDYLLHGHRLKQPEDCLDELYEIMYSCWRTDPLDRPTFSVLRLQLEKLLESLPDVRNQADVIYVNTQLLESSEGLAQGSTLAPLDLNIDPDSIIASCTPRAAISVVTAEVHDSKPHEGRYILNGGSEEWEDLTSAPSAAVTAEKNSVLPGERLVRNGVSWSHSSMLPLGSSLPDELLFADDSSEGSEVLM

Going from MIAIRYSHSRR [ACOXL_Y260_T255M] to RVDRDYVLKSA [HTATIP2_Y111], the phosphorylation enrichment rises from 0.353 to 0.857.

First: PNATLYKMSSI [SERPINA7_Y40]
Second: KGELRYMHSPV [ABCD1_Y281_R285P]
The phosphorylation enrichment of the first is lower: 0.361 for the first, 0.406 for the second.

Compared with ARIVDYNIIGW [MYH7_Y588_G584R], TEVIWYKGDEE is higher in phosphorylation enrichment: 0.454 for the first, 0.51 for the second.

First: RRNEEYCLLDS [ITK_Y198]
Second: DTDSSYCIPTA [GAB1_Y373]
The phosphorylation enrichment of the first is higher: 1.26 for the first, 1.01 for the second.

Going from DTYDPYLDIAL [USP36_Y268_V271I] to GLGGVYGGASG [KRT8_Y54_G53V], the phosphorylation enrichment falls from 0.611 to 0.445.

Compared with EVKEAYMGNVL [ACAT1_Y90], PGLRGYPGLSG [COL4A2_Y306] is higher in phosphorylation enrichment: 0.444 for the first, 0.599 for the second.

Compared with LWQSIYNLEAE [TNNT2_Y251], MTKEQYIKMNR [ARFGEF2_Y797] is lower in phosphorylation enrichment: 0.664 for the first, 0.348 for the second.

Compared with SLIDMYSKVLD [OPA1_Y268_E270K], EYGRRYGFSCQ [CCDC93_Y209_R213C] is lower in phosphorylation enrichment: 0.481 for the first, 0.476 for the second.

First: FKWAVYCIIGR [NUP93_Y391_R388W_YF]
Second: DPHECYAKVFN [ALB_Y394_D399N]
The phosphorylation enrichment of the first is higher: 0.534 for the first, 0.504 for the second.

First: ISRASYFRKGG [ALK_Y1282_Y1278S_YF]
Second: ELTTCYRKKCC [CCBE1_Y70]
The phosphorylation enrichment of the first is higher: 0.469 for the first, 0.413 for the second.

First: ELPEKYSQNIC [PKP2_Y626_Y631C]
Second: DQVEQYKKELE [LMNA_Y259]
The phosphorylation enrichment of the first is higher: 0.544 for the first, 0.527 for the second.

Going from LGRKLYSIATP [ABHD12_Y345_A349T] to LNEWHYGGLTG [PGAM2_Y92_R90W], the phosphorylation enrichment falls from 1.29 to 0.365.

First: KFDLMYAKLAF [TUBA1A_Y399_R402L]
Second: KTNVSYFGALD [CACNB4_Y103_C104F]
The phosphorylation enrichment of the first is higher: 3.23 for the first, 0.426 for the second.

Going from ADDSYYTARSA [ZAP70_Y493] to RMDGTYACSFT [FLNB_Y704_YF], the phosphorylation enrichment rises from 0.634 to 0.702.

Going from LGGAMYYLEAD [PKHD1_Y452_E457D] to RRGMPYGGHGD [TGM1_Y312_R315H], the phosphorylation enrichment falls from 1.62 to 0.465.

Compared with LARDMHDKEFF [MET_Y1230_Y1230H_YF], NFRNTYVNANE [KCNH2_Y475_T473N] is lower in phosphorylation enrichment: 0.907 for the first, 0.404 for the second.

Sequence GYYDLYGGEKF [PTPN11_Y66_D61G] has a phosphorylation enrichment of 6.61.
